Measurements taken from patent US20260108606A1, “TREATMENT OF AUTOIMMUNE DISEASES HAVING A PATHOGENIC T CELL STATE” (THE BRIGHAM AND WOMEN'S HOSPITAL, INC., priority 2023, published 2026).

Assays:
Assay type in all cases: cell-based, mouse
Tcf7 locus = Tcf7 locus reporter (Tcf7-GFP) activity in Th17 cells; conditions: CD4 T cells of Tcf7 locus reporter strain, IL-1β+IL-6 with or without IL-23 for 3 days, then 2 days of rest (FIG. 8C)
Protocol: (§1) Single-cell suspension were prepared from spleen and lymph nodes, and CD4 T cells isolated using the anti-CD4 microbeads (Miltenyi, catalogue #130-117-043). Subsequently, naïve CD4 T cells (CD62L^+ CD44^− CD25^−) were enriched through fluorescence activated cell sorting (FACS) performed on a BD FACSAria Ilu. Naïve CD4 T cells were activated for 3 days with 1 ug/ml of plate-bound anti-CD3 (BioXcell, BP0001) and anti-CD28 (BioXcell, BE0015), plus the addition of 20 ng/ml of IL-1B (R&D Systems), 25 ng/ml of IL-6 (R&D Systems), 20 ng/ml of IL-23 (R&D Systems), 20 ug/ml of anti-IFNγ (BioXcell, BE0055) and 20 μg/ml of anti-IL4 (BioXcell, BE0045) for pathogenic Th17; 2 ng/ml of TGFβ1, 25 ng/ml of IL-6, 20 μg/ml of anti-IFN and 20 μg/ml of anti-IL4 for non-pathogenic Th17. Cells were then rested in un-coated plates in absence of anti-CD3/anti-CD28 stimulation for 2 days. For some experiments, cells were re-stimulated with 1 ug/ml of anti-CD3/anti-CD28 for 1-2 days.
(§2) Single-cell suspensions were firstly stained to discriminate live cells with UV Zombie (Biolegend) in PBS, and then in FACS buffer (2% bovine serum albumin in PBS) with antibodies for surface antigens. […] Fully stained samples were read either at a BD LSRFortessa or BD FACSymphony. The data were analyzed with FlowJo software (TreeStar) and GraphPad Prism software (GraphPad).

CD4+ T cells = test: Glycolytic rate assay using Seahorse (ECAR); conditions: WT cells differentiated with IL-1β+IL-6 with or without IL-23 (FIG. 12G)
From the text: FIG. 12A-12K—TCF1 deficiency obviates the need for IL-23 for Th17 pathogenicity. (FIG. 12A) Schematic view of in vitro differentiation with IL-1b and IL-6 for adoptive transfer experiments. (FIG. 12B-12D) CNS-infiltrating immune cells (FIG. 12B-12C) or immune cells from draining lymph nodes (dLN) (FIG. 12D) were harvested from mice at peak of disease (EAE score 1-5) and analyzed by flow cytometry. (FIG. 12B) Summary data of the frequency of Foxp3+ cells within the 2D2 cell population infiltrating the CNS (WT n=11; KO n=12). (FIG. 12C) Summary data of cytokine production by host CD4+ T cells infiltrating the CNS (WT n=10; KO n=12). (FIG. 12D) Summary data of the frequency of SLAMF6+ and CXCR6+ cells within 2D2+ cells in the dLN of recipients of 2D2 TCF1 WT (n=8) and TCF1cKO (n=10) cells. […] (FIG. 12I-12J) CNS-infiltrating 2D2 cells were harvested and FACS-sorted from mice at peak of disease (EAE score 1-5) and analyzed by confocal microscopy. […]
Th17 pathogenicity is driven by IL-23 and has been associated with increased glycolytic activity and lipid metabolism, which in turn, supply crucial sterol ligands to boost RORγt transcriptional activity. […] The disclosure further assessed the intra-cellular lipid content of 2D2 TCF1 WT and 2D2 TCF1cKO cells isolated from the CNS of p19^−/− mice.

TCF1 = test: Th17 in vitro differentiation, TCF1 and RORγt expression by flow cytometry
Protocol: as §1, §2

B1: IL-23: a cytokine critical for inducing pathogenic Th17 cells (protein, UniProt Q9NPF7 20-189; P29460 23-328, looked up)
Interleukin-23 subunit alpha: RAVPGGSSPAWTQCQQLSQKLCTLAWSAHPLVGHMDLREEGDEETTNDVPHIQCGDGCDPQGLRDNSQFCLQRIHQGLIFYEKLLGSDIFTGEPSLLPDSPVGQLHASLLGLSQLLQPEGHHWETQQIPSLSPSQPWQRLLLRFKILRSLQAFVAVAARVFAHGAATLSP
Interleukin-12 subunit beta: IWELKKDVYVVELDWYPDAPGEMVVLTCDTPEEDGITWTLDQSSEVLGSGKTLTIQVKEFGDAGQYTCHKGGEVLSHSLLLLHKKEDGIWSTDILKDQKEPKNKTFLRCEAKNYSGRFTCWWLTTISTDLTFSVKSSRGSSDPQGVTCGAATLSAERVRGDNKEYEYSVECQEDSACPAAEESLPIEVMVDAVHKLKYENYTSSFFIRDIIKPDPPKNLQLKPLKNSRQVEVSWEYPDTWSTPHSYFSLTFCVQVQGKSKREKKDRVFTDKTSATVICRKNASISVRAQDRYYSSSWSEWASVPCS
- Tcf7 locus reporter activity (Tcf7 locus): significantly decreased
- glycolysis (extracellular acidification rate; ECAR) (CD4+ T cells): increased glycolysis
- TCF1 protein expression (TCF1; naïve CD4+ T cells differentiated with IL-1β and IL-6 for 2 days, then increasing doses of IL-23, dose-dependent (FIG. 1F)): decreased significantly
- proportion of TCF1lo RORγt hi cells (TCF1; pTh17 differentiated for 3 days, then fresh IL-23 added in the culture media (FIG. 8D)): increased proportion
